Experimental data from paper PMC5025603.

Substrate: CC(O)C(=O)O
Test: cells, lysate or membranes
Settings: labelled compound, KH2PO4 pH 5.0, room temperature, 10 s uptake, strain printed GLS in table, GS in text and methods, host background uptake not subtracted

B1: PAS (putative lactate transporter of P. pastoris) (Komagataella phaffii GS115) (protein)
chain: MSHSIHSAAHKSVMTDIEKQHDRIHPHDHPVTPLEKPDLSAKSIKHYFATRLSTLVPKAEDFKDKRYIFNPFMVLRELTPKNWNFFMCGFAAWTWDAVDFFSVSLNVTNIAKDLNVTTKDVTWGLTLVLMLRSVGAISFGLWADRKGRKWPFIFNMILLIVLQIGLGFVNTYKQFLGVRAVFGIAMGAVFGNASSLALDDCPPRAKGIVSGIFQQGYAFGYLLVVVFQRAITDNASKSWRALFWFSAGPPVLIILWRLVLPETDAFIAQQNLRMETSDGQTASQQFVKQGKDALRVYWLMLIYMIIMMAAFNFSSHSSQDLYPTLLTVQYEFGKDRSTVTNVVANLGAIVGGIFWGHMSNFIGRRLAVLLCCIVGGAFIYPWAFINGSGINAGAFFLQFAVQGGWGVCPVHLAEMSPPHFRAFVTGTTYQLGNLASSGSSTILADIGERFPIYDENGVRKEGVYDYAKVMAIFMGAVFAFLFIVMLLGPERRGASNLDDLQDYIDDWEQKDLDNKKGIETEFIEDVQLMEAVSNEDLSEKGNEKVEAFEGNK
- Km: 157.40 ± 25.46 µM
- Vmax: 452 µmol/min/mg
